The values below come from PMC8746653, “Biochemical and Structural Analysis of a Glucose-Tolerant β-Glucosidase from the Hemicellulose-Degrading Thermoanaerobacterium saccharolyticum” (Molecules, 2022).

For data set [1], the target named is T1, TsaBgl (Thermoanaerobacterium saccharolyticum, UniProt I3VXG7).
T1 construct: gene Tsac_2208
Briefly: pNPG hydrolysis, pNP release at […] nm, inhibitor titration. The data set is classed as biochemical. The conditions noted are these: read-out: concentration that reduced the enzyme activity by half.

The target in data set [2] is T1, TsaBgl. Briefly: X-ray crystal structure, […] Å. The class given is binding. Conditions: Tris from buffer bound at active site, contacts Glu163 and Glu351; crystallised in 0.1 M Tris-HCl pH 7.0.
Substrate in the data set “purified protein”: O=[N+]([O-])c1ccc(O[C@@H]2O[C@H](CO)[C@@H](O)[C@H](O)[C@H]2O)cc1
Nature of the data set: purified protein. Conditions: 100 mM sodium phosphate pH 6.0, 55 °C, 0-10 mM pNPG.

Turning to `NC(CO)(CO)CO` [Tris], the IC50 at TsaBgl [1] is around 10 mM. Also, at TsaBgl [2], the “X-ray crystal structure, 1.70 Å” value is recorded as “one Tris molecule was bound to the active site”.

B1: TsaBgl (Thermoanaerobacterium saccharolyticum JW/SL-YS485) (protein)
chain: MLDFSKDFLFGVATASYQVEGAYNEDGRTMSIWDTFSRQDGKVYKSHNGDVACDHYHLYKDDVKMMKDLGIEAYRFSIAWPRIFPAKGQYNPKGMDFYKRLTDELLKNDIKPFATIYHWDLPQWADDLGGWLNREIVEWYGEYAEKLFSELGGYIKNWITLNEPWCSSFLSYFIGEHAPGHKDLGEALLVSHNLLLSHGKAVEIFRGLNLDDSKIGITLNLNEVFPASDSDDDKVAAQIADGFQNRWFLDPLFKGKYPQDMVEYFGKYAKVDFINDEDLKLISQKLDFLGVNYYTRAVVQKGNDGLLDAVQIDPGNERTEMGWEIYPESLYNILMRLKREYTYDMPLYITENGAAFNDVVEDDGRVHDEKRVEFLKQHFKEAKRFLNDGGNLKGYFVWSLMDNFEWAHGYSKRFGIVYVDYETEKRILKDSALWYKDLISTRTI
As to B1, in “purified protein”, the Michaelis-Menten constant (Km) (in general, the concentration of substrate that gives half-maximal velocity) was found to be 360 ± 20 µM; the kcat – broadly, the number of substrate molecules converted per active site and unit of time at saturation – worked out at 18.6 s⁻¹; the kcat/Km – broadly, the second-order rate constant that governs catalysis at low substrate concentration – came out at 51000 M⁻¹ s⁻¹.
